From EP4725508A1, “LIGAND-DRUG CONJUGATE HAVING FREE PAYLOAD RECOVERY UNIT” (RemeGen Co., Ltd., priority 2024, dated 2025)

What was measured:
Nectin-4 = molecular target: T1, Nectin-4 (Homo sapiens, UniProt Q96NY8); experiment: Binding activity with Nectin-4
T1 sequence (Q96NY8 32-510): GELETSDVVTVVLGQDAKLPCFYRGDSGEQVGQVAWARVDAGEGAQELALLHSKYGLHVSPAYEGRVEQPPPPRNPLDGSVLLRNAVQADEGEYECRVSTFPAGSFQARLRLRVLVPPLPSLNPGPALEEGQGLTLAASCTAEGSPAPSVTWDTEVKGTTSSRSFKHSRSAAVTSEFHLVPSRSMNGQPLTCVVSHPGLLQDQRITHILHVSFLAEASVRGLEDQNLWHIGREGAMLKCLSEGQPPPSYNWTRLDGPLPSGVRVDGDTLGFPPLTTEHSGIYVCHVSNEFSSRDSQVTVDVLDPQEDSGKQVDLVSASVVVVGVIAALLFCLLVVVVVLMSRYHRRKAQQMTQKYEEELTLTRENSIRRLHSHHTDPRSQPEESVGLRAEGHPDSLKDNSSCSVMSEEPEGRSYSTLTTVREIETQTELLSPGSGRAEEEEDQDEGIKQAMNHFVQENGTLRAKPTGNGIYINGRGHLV

OVCAR3 = experiment: Cell killing activity; type: cell-based
[1] = tested on: human bladder cancer cell HT-1376 subcutaneous xenograft; experiment: Efficacy in subcutaneous xenograft model; type: in vivo, BALB/c-nu mice; conditions: equimolar doses
Experimental: Human bladder cancer cells HT-1376 were expanded and cultured, and then subcutaneously inoculated into the right forelimb axilla near the back of BALB/c-nu mice (GemPharmatech, female). Tumor growth was observed. When the tumor volume reached about 90 to 200 mm^3, the mice were randomized into groups based on tumor volume and administered with drugs.
The day of administration was designated as D0. During the experiment, tumor long diameter, short diameter, and body weight were measured twice a week, accompanied by observation of clinical symptoms. At the endpoint of the experiment, the experimental mice were euthanized.

[2] = Toxicokinetics of free MMAE in serum (Hybrid LBA LC-MS/MS); type: in vivo; conditions: BALB/c mice, Nectin4A14-DL01-MMAE 136 mg/kg vs EV 100 mg/kg
Experimental: (§1) Test 1: 18 BALB/c mice, female, with body weights of 16 to 19 g at the time of grouping, were divided into a PR-ADC group (CDCP1A9-DL01-MMAE, 140 mg/kg) and a conventional ADC group (CDCP1A6-DL01-MMAE, 100 mg/kg), both at equimolar doses, with 9 mice in each group (5 for toxicology + 4 for toxicokinetic (TK)), for a total of 2 groups. A single dose was administered, with a dosing volume of 10 mL/kg. The drug-related toxic effects in BALB/c mice for each group were investigated and compared through aspects such as death, clinical observation, body weight, and toxicokinetic detection. The experiment lasted for 14 days.
Free MMAE was determined using a Hybrid LBA LC-MS/MS method. Protein A/G-Beads were used to separate the ADC/PR-ADC, MMAE-bound PR-ADC, and MMAE-bound anti-MMAE antibodies from the serum. The remaining samples were subjected to protein precipitation and then tested for free MMAE using the LC-MS/MS method. Table 34. Toxicity test results of animals in each group
(§2) Test 2: 16 BALB/c mice, female, with body weights of 16 to 20 g at the time of grouping, were divided into PR-ADC group (CDCP1A12-DL01-MMAE, 134 mg/kg) and conventional ADC group (CDCP1A6-DL01-MMAE, 100 mg/kg) dose group, both at equimolar doses, with 8 mice in each group (4 for toxicology + 4 for TK), for a total of 2 groups. A single dose was administered, with a dosing volume of 10 mL/kg. The drug-related toxic effects in BALB/c mice for each group were investigated and compared through aspects such as death, clinical observation, body weight, and toxicokinetic detection. The experiment lasted for 14 days.
Free MMAE was also determined using the Hybrid LBALC-MS/MS method. Table 36. Toxicity test results of animals in each group
(§3) 18 BALB/c mice, female, with body weights of 16 to 19 g at the time of grouping, were divided into a PR-ADC group (Nectin4A14-DL01-MMAE, 136 mg/kg) and a conventional ADC group (EV, 100 mg/kg), both at equimolar doses, with 9 mice in each group (5 for toxicology + 4 for TK), for a total of 2 groups.
Free MMAE was also determined using the Hybrid LBA LC-MS/MS method. Table 38. […]

CHOK1 = experiment: Cell killing activity; type: cell-based
[3] = Comparative study of toxicity in BALB/c mice; type: in vivo
Experimental: as §1, §2, §3

HCC1954 = experiment: Cell killing activity; type: cell-based
BSA-MMAF = experiment: Peptide competitive ELISA (PP-1B-#74); type: binding; conditions: FIG. 43
Experimental: Based on the peptide molecule binding activity results, molecule PP-1B-#74 was further verified for its specific binding to MMAE through competitive experiments.
• (1) Antigen coating: BSA-MMAF was coated onto a microplate using coating buffer at a concentration of 1 µg/mL, and the plate was placed at 4°C overnight for about 16 h. (2) Blocking: The microplate coated with antigen was washed once with PBST using a plate washer, and blocked by adding Casein solution at 200 µL/well at room temperature for 1 h. (3) Primary antibody incubation: The plate was washed 3 times with PBST, and a premixture of peptide sample diluted with Casein solution and truncated free MMAE/null-ADC was added. The final concentration of the peptide sample was 2000 nM. The initial concentration of truncated free MMAE and null-ADC was 1000 nM, diluted in a 10-fold gradient, and incubation was performed at room temperature for 2 h. (4) Secondary antibody incubation: The plate was washed 3 times with PBST, and secondary antibody Goat pAb to Hu IgG(HRP) (1:10000) diluted with Casein solution was added and the plate was incubated at room temperature for 1 h. […] Termination: 100 µL of 2 M H2SO4 was added to each well to terminate the reaction, and the OD450 value was read using a microplate reader, recorded, and saved. (6) Finally, the data were analyzed using GraphPad software.

OVA-MMAF and BSA-MMAF = experiment: Peptide ELISA binding experiment (PP-1B Fc fusion peptides); conditions: FIG. 42
Experimental: The binding of the constructed Fc fusion peptide molecules PP-1B-#70 to #74 with OVA-MMAF and OVA was identified respectively to screen for molecules with better specific binding specificity to MMAE. After the first round of primary screening was completed, the binding specificity of #74 with OVA-MMAF and BSA-MMAF was further verified.
• (1) Antigen coating: MMAF conjugated protein and negative protein were coated onto a microplate using coating buffer at a concentration of 1 µg/mL, and the plate was placed at 4°C overnight for about 16 h. (2) Blocking: The microplate coated with antigen was washed once with PBST using a plate washer, and blocked by adding Casein solution at 200 µL/well at room temperature for 1 h. (3) Primary antibody incubation: The plate was washed 3 times with PBST, and peptide samples with an initial concentration of 2000 nM diluted in a 5-fold gradient using Casein solution were added and the plate incubated at room temperature for 2 h. (4) Secondary antibody incubation: The plate was washed 3 times with PBST, and secondary antibody Goat pAb to Hu IgG(HRP) (1:10000) (Abcam, Cat. Ab97225) diluted with Casein solution was added and the plate was incubated at room temperature for 1 h. […] The OD450 value was read using a microplate reader, recorded, and saved. Finally, the data were analyzed using GraphPad software.

Row | Substance | Top OD450 (Nectin-4) | IC50 (OVCAR3) [nM] | MIR (%) (OVCAR3) | TGI [1] [%] | Free MMAE AUC [2] [µM·h] | Free MMAE Cmax [2] [nM] | Free MMAE Tmax [2] [h] | MIR (%) (CHOK1) | Clinical Observation ([3]; Nectin4A14-DL01-MMAE 136 mg/kg vs EV 100 mg/kg) | Death ([3]; Nectin4A14-DL01-MMAE 136 mg/kg vs EV 100 mg/kg (equimolar)) | Max Body Weight Change Rate ([3]; Nectin4A14-DL01-MMAE 136 mg/kg vs EV 100 mg/kg, day in brackets in the cell) | tolerance ([3]; Nectin-4 comparison) | IC50 (HCC1954) [nM] | MIR (%) (HCC1954) | specific binding to MMAE (competitive ELISA) (BSA-MMAF) | specific binding to OVA-MMAF and BSA-MMAF (OVA-MMAF and BSA-MMAF)
1 | Enfortumab vedotin [EV] | 1.23 | 33.3 | 60.27 | 71 | 9.09097 ± 0.65517 | 76.08 ± 4.88 | 24 | 17.40 | Piloerection (4/4), Hunched posture (5/5), Squinting eyes (5/5), Lethargy (1/5) | 2/9 | -24.4% (D7) | less than 100 mg/kg | 148 | 70.90 |  | 
2 | YYVAWRW [PP-1B-#74] |  |  |  |  |  |  |  |  |  |  |  |  |  |  | able to specifically bind to MMAE | able to specifically bind to OVA-MMAF and BSA-MMAF
